Key:
GroEL (E. coli) = GroEL (E. coli) (UniProt P0A6F5)
[1] = molecular target: guanyl-nucleotide binding protein Ras (21 kDa); experiment: competition fluorescence polarization: 4 µM Ras (negative control) preincubated with 8 µM unlabeled pyrrhocoricin, then 1 nM fluorescein-K-pyrrhocoricin; used as the correction for the DnaK and GroEL readings
[2] = molecular target: guanyl-nucleotide binding protein Ras (21 kDa); experiment: competition fluorescence polarization: 4 µM Ras (negative control) preincubated with 4 µM unlabeled pyrrhocoricin, then 1 nM fluorescein-K-pyrrhocoricin; used as the correction for the DnaK and GroEL readings

Substance	millipolarization over the background (GroEL (E. coli)) [%]	decrease of the millipolarization reading after preincubation (millipolarization units) [1]	decrease of the millipolarization reading after preincubation (millipolarization units) [2]
fluorescein-labeled β-tubulin fragment aa434-445 (peptide)	50	–	–
pyrrhocoricin (unlabeled, all L-amino acids, without sugar) (peptide)	–	27	16

Reference: patent publication US20030108957A1
